Reference: PMC7997955

Biological target: Full-length human AURKA^T288V (human) (UniProt O14965)
Experiment: fluorescence polarisation; competitive displacement: 5 nM FITC-Tpx2^1–43 and 35 nM AURKA kept constant, unlabeled competitor (Bora or Tpx2) varied; 25 mM HEPES pH 7.5, 50 mM NaCl, 10 mM MgCl2, 0.1 mg/mL BSA, 0.01% Brij, 3 mM ADP, 2 mM DTT

Sequence of Full-length human AURKA^T288V (human) (O14965 other isoform, or with tags, fused parts or gaps T288V | T288V): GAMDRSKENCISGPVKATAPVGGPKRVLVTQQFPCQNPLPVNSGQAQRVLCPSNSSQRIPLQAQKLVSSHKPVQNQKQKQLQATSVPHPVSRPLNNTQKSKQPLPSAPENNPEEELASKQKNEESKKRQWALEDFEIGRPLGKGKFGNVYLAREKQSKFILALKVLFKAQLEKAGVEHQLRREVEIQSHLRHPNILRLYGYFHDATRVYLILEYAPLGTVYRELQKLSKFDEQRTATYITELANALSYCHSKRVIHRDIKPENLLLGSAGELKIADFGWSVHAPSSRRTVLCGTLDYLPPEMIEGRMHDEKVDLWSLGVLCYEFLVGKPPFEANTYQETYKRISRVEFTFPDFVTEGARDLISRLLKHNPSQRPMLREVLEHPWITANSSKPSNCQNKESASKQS

Substance: pBora^18–120 (from UniProt Q6PGQ7 18-120) (domain or fragment)
- fold less efficient displacement of FITC-Tpx2^1–43 than pBora^1–224: 20 fold
